{"source": "paper PMC4553633", "about": "“RA Acts in a Coherent Feed-Forward Mechanism with Tbx5 to Control Limb Bud Induction and Initiation”", "target": "T1, flag-RARα (mRARα);myc-RXRα (mRXRα) (Mus musculus;Mus musculus, UniProt P11416;P28700 1-462;1-467, |)", "T1 sequence 1": "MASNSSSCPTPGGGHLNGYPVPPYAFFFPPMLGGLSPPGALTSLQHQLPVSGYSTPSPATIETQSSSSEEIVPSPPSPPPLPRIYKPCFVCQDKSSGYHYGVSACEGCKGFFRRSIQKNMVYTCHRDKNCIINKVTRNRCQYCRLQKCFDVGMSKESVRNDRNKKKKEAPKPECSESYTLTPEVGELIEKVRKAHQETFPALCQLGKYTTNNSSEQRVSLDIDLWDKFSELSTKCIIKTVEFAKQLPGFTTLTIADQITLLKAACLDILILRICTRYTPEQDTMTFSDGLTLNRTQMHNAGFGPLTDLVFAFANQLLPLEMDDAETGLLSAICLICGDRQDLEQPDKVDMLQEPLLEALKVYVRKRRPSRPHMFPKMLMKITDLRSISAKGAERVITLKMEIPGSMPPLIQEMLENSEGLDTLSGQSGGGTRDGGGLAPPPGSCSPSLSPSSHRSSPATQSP", "T1 sequence 2": "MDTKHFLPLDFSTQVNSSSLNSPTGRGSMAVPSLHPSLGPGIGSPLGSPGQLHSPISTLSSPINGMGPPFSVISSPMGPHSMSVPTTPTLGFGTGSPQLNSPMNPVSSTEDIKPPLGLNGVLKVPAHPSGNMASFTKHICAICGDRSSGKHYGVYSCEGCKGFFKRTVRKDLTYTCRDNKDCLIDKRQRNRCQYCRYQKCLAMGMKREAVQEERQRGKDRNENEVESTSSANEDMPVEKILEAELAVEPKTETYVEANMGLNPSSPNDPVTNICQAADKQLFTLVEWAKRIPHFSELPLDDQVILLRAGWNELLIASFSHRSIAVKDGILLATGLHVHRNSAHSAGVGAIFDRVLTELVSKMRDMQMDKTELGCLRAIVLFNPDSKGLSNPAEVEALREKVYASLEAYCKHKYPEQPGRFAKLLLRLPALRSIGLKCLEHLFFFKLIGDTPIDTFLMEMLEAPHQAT", "test": "EMSA; EMSA essentially as Forman et al. 1992 and Shtutman et al. 1999; buffer, salt, pH and temperature not stated", "settings": "protein: ivt;ivt; tags: N-terminal flag;N-terminal myc; copies: 1;1; blunt (complement S6 printed; duplex implied)", "data": [{"binder": "RARE3 mut (dsDNA) DNA 1: CCGGCAGCTGCGATGACTGCTCCCTCCTTA DNA 2: TAAGGAGGGAGCAGTCATCGCAGCTGCCGG", "values": [{"measurement": "binding result", "value": "no binding"}]}]}
